1 substance from paper PMC3013631 can be followed below.

The assay deals with Irgb6 (mouse (endogenous in macrophages)) (UniProt Q62293). Kind of assay: co-IP.
Chain of UniProt Q62293 (Q62293 whole entry): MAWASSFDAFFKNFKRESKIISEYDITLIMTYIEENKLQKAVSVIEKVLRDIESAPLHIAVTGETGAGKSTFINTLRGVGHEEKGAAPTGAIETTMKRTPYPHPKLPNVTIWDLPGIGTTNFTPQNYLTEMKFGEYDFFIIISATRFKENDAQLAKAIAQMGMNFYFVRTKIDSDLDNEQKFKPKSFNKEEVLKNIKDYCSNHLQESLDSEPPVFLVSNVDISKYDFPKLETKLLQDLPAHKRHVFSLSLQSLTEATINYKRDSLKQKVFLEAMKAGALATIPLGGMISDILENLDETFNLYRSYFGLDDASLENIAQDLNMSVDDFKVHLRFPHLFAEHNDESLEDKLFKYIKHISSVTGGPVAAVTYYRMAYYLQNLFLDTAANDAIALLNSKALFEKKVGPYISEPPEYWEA

“kinase-dead ROP18 D/A (Ty-tagged; expressed in transgenic type III parasites) (from UniProt Q2PAY2 1-554) (enzyme)”: the fold change of co-precipitated ROP18 against active ROP18 turned out to be 3 fold.
